Legend:
[1] = biological target: T1, murine CD19 protein (murine, UniProt P25918 17-287, limits assumed); assay: ELISA, coated murine CD19
T1 construct: bought protein; also called commercial murine CD19
T1 sequence (looked up): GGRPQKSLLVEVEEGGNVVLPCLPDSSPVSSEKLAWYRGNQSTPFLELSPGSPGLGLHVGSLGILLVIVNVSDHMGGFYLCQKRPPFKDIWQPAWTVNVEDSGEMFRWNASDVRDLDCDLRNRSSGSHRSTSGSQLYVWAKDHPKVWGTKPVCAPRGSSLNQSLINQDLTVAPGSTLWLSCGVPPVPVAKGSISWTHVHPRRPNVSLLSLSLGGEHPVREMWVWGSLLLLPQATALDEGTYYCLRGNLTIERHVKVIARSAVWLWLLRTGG
Method in brief: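 Plates coated overnight at 4° C with recombinant murine or monkey CD19 and blocked with 2% BSA. Chimeric antibodies, serially diluted from 100 nM, bound for 2 h at 37° C. TMB development for 10 min with OD450 read-out.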

[2] = biological target: T2, Human CD19-his protein (human, UniProt P15391 20-291); assay: ELISA, antibody at 10 nM
T2 construct: bought protein; also called human CD19 protein; recombinant human CD19-His; not shown: His tag
T2 sequence (looked up): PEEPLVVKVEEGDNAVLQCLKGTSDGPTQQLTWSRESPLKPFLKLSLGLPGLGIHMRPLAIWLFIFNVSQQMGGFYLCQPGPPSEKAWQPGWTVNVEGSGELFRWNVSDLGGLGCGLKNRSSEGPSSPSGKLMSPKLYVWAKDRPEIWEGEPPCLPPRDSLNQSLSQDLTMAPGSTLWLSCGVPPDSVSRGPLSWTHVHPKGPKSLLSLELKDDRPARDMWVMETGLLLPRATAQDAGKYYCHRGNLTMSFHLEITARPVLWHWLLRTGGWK

[3] = biological target: T2, Human CD19-his protein; assay: ELISA, antibody at 100 nM
[4] = biological target: T2, Human CD19-his protein; assay: ELISA, antibody at 0.01 nM
[5] = biological target: T2, Human CD19-his protein; assay: ELISA, antibody at 0.10 nM
[6] = biological target: T2, Human CD19-his protein; assay: ELISA, antibody at 1.00 nM
[7] = biological target: T2, Human CD19-his protein; assay: ELISA, antibody at 0.001 nM
[8] = biological target: T2, Human CD19-his protein; assay: ELISA, antibody at 0.0001 nM
[9] = biological target: T2, Human CD19-his protein; assay: ELISA on coated human CD19-His
Method: (§1) Human CD19-his protein (purchased from ACROBiosystems, catalog number: CD9-H52H2) was diluted with PBS to a final concentration of 4 μg/mL, and then added to a 96-well ELISA plate at 100 μl/well. The plate was sealed with a plastic film and incubated overnight at 4° C., the plate was washed 2 times with PBS the next day, and then a blocking solution [PBS+2% (w/w) BSA] was added for blocking at room temperature for 2 h. The blocking solution was poured off, and 100 nM gradiently diluted CD19 chimeric antibody or control antibody was added at 50 μl/well. After incubation at 37° C. for 2 h, the plate was washed 3 times with PBS. […] TMB substrate was added at 50 μl/well, and incubated at room temperature for 10 min, and then a stop solution (1.0 N HCl) was added at 50 μl/well. The OD450 nm values were read by an ELISA microplate reader (Multimode Plate Reader, EnSight, purchased from Perkin Elmer).

[10] = biological target: T3, human CD19 exon1-3-His tag protein (human, UniProt P15391 20-186, limits assumed); assay: ELISA on coated human CD19 exon 1-3-His
T3 construct: membrane-distal part of the extracellular region, made in HEK293E cells; not shown: His tag
T3 sequence (looked up): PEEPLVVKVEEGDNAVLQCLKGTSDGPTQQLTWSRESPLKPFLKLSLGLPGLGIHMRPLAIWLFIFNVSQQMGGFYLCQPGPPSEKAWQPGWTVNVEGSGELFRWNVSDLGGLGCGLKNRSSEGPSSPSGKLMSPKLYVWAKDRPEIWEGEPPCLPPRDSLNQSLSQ

[11] = biological target: T4, Human CD19-his protein (human, UniProt P15391 20-291); assay: SPR Biacore, Ab captured on Protein A, CD19-His analyte
T4 construct: bought protein; also called recombinant human CD19-His; CD19 full-length protein; not shown: His tag
T4 sequence (looked up): T2 sequence (looked up)
Method in brief: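 Apparent KD came from a Langmuir 1:1 fit of double-referenced sensorgrams. Recombinant human CD19-His analyte (top 200 nM, 1:1 serial dilution, 5 concentrations) flowed over Protein A-captured antibody for 240 s at 30 μl/min, then buffer for up to 600 s. Running buffer HBS-EP+ at 25 °C; regeneration with 10 mM glycine pH 1.5.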

[12] = biological target: T5, human CD19 on Raji cells (human, UniProt P15391 20-556); assay: FACS on Raji cells
T5 construct: whole, on cells
T5 sequence (looked up): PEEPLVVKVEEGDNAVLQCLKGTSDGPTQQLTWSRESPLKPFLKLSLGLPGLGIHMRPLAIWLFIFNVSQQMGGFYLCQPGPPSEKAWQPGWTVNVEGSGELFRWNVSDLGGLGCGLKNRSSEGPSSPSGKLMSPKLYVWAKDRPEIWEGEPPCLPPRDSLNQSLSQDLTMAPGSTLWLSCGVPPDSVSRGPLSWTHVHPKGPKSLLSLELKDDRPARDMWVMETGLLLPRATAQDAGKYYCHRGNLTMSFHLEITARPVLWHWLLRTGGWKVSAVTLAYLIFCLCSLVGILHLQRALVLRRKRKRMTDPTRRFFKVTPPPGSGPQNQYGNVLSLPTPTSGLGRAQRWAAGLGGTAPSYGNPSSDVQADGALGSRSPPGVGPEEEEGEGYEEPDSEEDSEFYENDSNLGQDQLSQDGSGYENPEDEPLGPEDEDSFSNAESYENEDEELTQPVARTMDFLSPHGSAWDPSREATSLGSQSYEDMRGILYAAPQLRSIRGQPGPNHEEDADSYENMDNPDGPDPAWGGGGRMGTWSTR

[13] = biological target: T6, human CD19 on CHO-K1-human CD19 cells (human, UniProt P15391 20-556); assay: FACS on CHO-K1-human CD19 cells
T6 construct: whole, on cells; also called CHO-K1-human CD19-2C8
T6 sequence (looked up): T5 sequence (looked up)

[14] = biological target: T7, monkey CD19 protein (monkey); assay: ELISA, coated monkey CD19 protein
T7 construct: also called monkey CD19-His protein
Method: as §1
In order to detect the species cross-binding activity of the chimeric antibodies, an ELISA plate was coated with commercial murine CD19 (ACROBiosystems, catalog number: 50510-M08H) and monkey CD19 (ACROBiosystems, catalog number: 90051-C08H), respectively, and the ELISA detection was performed according to the method in example 5.1.

[15] = biological target: T8, monkey CD19 on HEK293T-monkey CD19 cells (monkey); assay: FACS on HEK293T-monkey CD19 cells
T8 construct: whole, on cells
Method in brief: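 Antibody binding was read as MFI by flow cytometry and EC50 was taken from curve fitting. Before that, cells at 2×10⁶ cells/ml in PBS with 2% (w/w) BSA were exposed to samples for 2 h on ice and washed. Parental HEK293T cells were tested the same way.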

B1: F3.74.4 (antibody, human IgG1, V domains shown)
VH: QVQLQQSGAELVRPGASVTLSCKASGYTFTDYEMHWVKQTPVHGLEWIGGIAPETGLTTYNQKFEDKAILTADKSSRTAYMELRSLTSEDSAVYFCNPNNYGLWGTGTTVTVSS
VL: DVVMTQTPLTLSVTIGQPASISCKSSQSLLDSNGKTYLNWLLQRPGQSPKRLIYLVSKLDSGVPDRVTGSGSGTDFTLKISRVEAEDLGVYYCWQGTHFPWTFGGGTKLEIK
notes: human-murine chimeric antibody, human IgG1
[1]
  binding result: no binding
[2]
  OD450: 2.64
[3]
  OD450: 2.96
[4]
  OD450: 0.21
[5]
  OD450: 1.02
[6]
  OD450: 2.32
[7]
  OD450: 0.07
[8]
  OD450: 0.05
[9]
  EC50 (read off the curve): ~0.2 nM

B2: F3.77.6 (antibody, human IgG1, V domains shown)
VH: EFQLQQSGPELVKPGASVKISCKASGYSFTDYNMNWVKQSNGKSLEWIGTINPNYITSYNQKFKGKATLTVDQSSSTAYMQLNSLTSEDSAVYYCAGDYKGYWGQGTTLTVSS
VL: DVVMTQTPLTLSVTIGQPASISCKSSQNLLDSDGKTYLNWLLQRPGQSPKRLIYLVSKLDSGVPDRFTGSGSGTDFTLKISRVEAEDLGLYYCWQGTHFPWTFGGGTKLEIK
notes: as for B1
[1]
  binding result: no binding
[2]
  OD450: 2.98
[3]
  OD450: 2.94
[4]
  OD450: 0.3
[5]
  OD450: 1.33
[6]
  OD450: 2.69
[7]
  OD450: 0.08
[8]
  OD450: 0.05
[9]
  EC50 (read off the curve): ~0.1 nM

B3: F4.78.1 (antibody, human IgG1, V domains shown)
VH: QVQIQQSGAELARPGASVKLSCKASGYTFTNYWMQWIKQRPGQGLEWIGAIYPGDGDTRYTQKFKGKATLTADKSSSTAYMQLSSLASEDSAVYYCAREEVWSPYGMDYWGQGTSVTVSS
VL: QIVLTQSPAIMSASPGEKVTITCSASSSVSYMGWFQQKPGTSPKLWIYSTSNLASGVPARFSGSGSGTSYSLTISRMEAEDAATYYCQQRSIYPLTFGAGTKLELK
notes: human-murine chimeric antibody, human IgG1 constant
[10]
  binding result: no binding (tested: 100 nM)
[11]
  Kd: 0.926 nM
  koff: 0.00017 s⁻¹
  kon: 184000 M⁻¹ s⁻¹

B4: F4.82.11 (antibody, human IgG1, V domains shown)
VH: QVTLKESGPGILQASQTLSLTCSFSGFSLSTFGIGVGWVRQPSGKGLEWLAHIWWNDNKFFNTTLKNRLTLSKDPSNNQVFLKIASVDTADTATYYCARSRSALITTGLYAMDYWGQGTSVTVSS
VL: DIQMTQTPSSLSASLGDRVTISCRSSQDISNYVNWYQQKPDGTVKVLINYTSRLHSGVPSRFSGSGSGTDYSLTISNLEQEDIASYFCQQGFTLPYTFGGGTKLEIK
notes: as for B3
[10]
  binding result: no binding (tested: 100 nM)
[11]
  Kd: 22.7 nM
  koff: 0.000774 s⁻¹
  kon: 34100 M⁻¹ s⁻¹

B5: F5.2.9 (antibody, human IgG1, V domains shown)
VH: QVTLKESGPGILQPSQTLSLTCSFSGFSLSTFGLGVGWVRQPSGKGLEWLAHIWWDDDKYYNPALKSRVTVSKETSKNQVFFKIANVDTADSATYYCARLSRGLRRDVVYAMDHWGQGTSVTVSS
VL: DIQMTQTTSSLSASLGDRVTISCRASQDISNYLNWYQQKPDGSVKLLISYVSRLQSGVPSRFRGSGSGTDYSLTISNLDQEDIATYFCQQGIAFPYTFGGGTKLDIK
notes: as for B3
[10]
  binding result: no binding (tested: 100 nM)
[11]
  Kd: 15.7 nM
  koff: 0.000402 s⁻¹
  kon: 25700 M⁻¹ s⁻¹

B6: F5.3.6 (antibody, human IgG1, V domains shown)
VH: DVQLQESGPGLVKPSQSQSLTCSVTGYSITSGYYWNWIRQFPGNKLEWMGYISYDGSNNYNPSLKNRISITRDTSKNQFFLKLNSVTTEDTVTYYCARAPLTGDRYWYFDVWGTGTTVTVSS
VL: DIVLTQSPASLAVSLGQRATISCRASQSVSTSSYSYMHWYQQKPGQTPKLLIKYASNLKSGVPARFSGSGSGTDFTLNIHPVEEEDTATYYCQHSWEIPPTFGGGTKLEIK
notes: as for B3
[10]
  binding result: no binding (tested: 100 nM)
[11]
  Kd: 3.49 nM
  koff: 0.000122 s⁻¹
  kon: 35100 M⁻¹ s⁻¹

B7: F5.7.1 (antibody, human IgG1, V domains shown)
VH: QVTLKESGPGILQPSQTLSLTCSFSGFSLTTFGMGVGWIRQPSGKGLEWLTHIWWDDDKYYNPALKSRLTISKDTSKNQVFLRIANVDTADTATYYCARVITTGVPYFDYWGQGTTLTVSS
VL: ENVLTQSPAIMSASPGEKVTMTCRASSSVSSSYLYWYQQKSGASPKLWISSTSNLASGVPARFSGSGSGTSYSLTINSVEAEDAATYYCQQYSGYPWTFGGGTKLEIK
notes: as for B3
[10]
  binding result: no binding (tested: 100 nM)
[11]
  Kd: 1.18 nM
  koff: 0.000225 s⁻¹
  kon: 192000 M⁻¹ s⁻¹

B8: F5.8.6 (antibody, human IgG1, V domains shown)
VH: QVQLHQPGAELVMPGASVTLSCKASGYTFTSYWMHWVKQRPGQGLEWIGEIDPSDSYTTYDQKFKGKATLTVDKFSSTAYMQFSSLTSEDSAVYYCARLTGNHLDYWGQGTTLTVSS
VL: DIVMTQSHKFMSSSVGDRVSITCKASQDVSPAVAWYQQKPGQSPKLLIYSTSYRNTGVPDRFTGSGSGTDFTFTISSVQAEDLAVYYCQQHYSIPLTFGAGTKLELK
notes: as for B3
[10]
  binding result: no binding (tested: 100 nM)
[11]
  Kd: 5.98 nM
  koff: 0.00108 s⁻¹
  kon: 181000 M⁻¹ s⁻¹

B9: F3.148.10 (antibody, human IgG1, V domains shown)
VH: EVQLQQSGAELVRPGSSVTMSCKTSGYTFTNYGINWVKQRPGQGLEWIGYIFIGNDYTEYNEKFKGKATLTSDTSSSTAYMQLSSLTSEDSAIYFCTRFYSNYYGMDPWGQGTSVTVSS
VL: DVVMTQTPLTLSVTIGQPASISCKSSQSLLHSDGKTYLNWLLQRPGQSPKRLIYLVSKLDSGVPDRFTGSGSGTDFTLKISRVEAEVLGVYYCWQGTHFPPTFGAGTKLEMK
notes: as for B1
[12]
  EC50: 0.28 nM
  Maximum mean fluorescence intensity: 31800
[13]
  EC50: 0.26 nM
  Maximum mean fluorescence intensity: 4700
[14]
  OD450 at 0.0001 nM: 0.06 OD450
  OD450 at 0.001 nM: 0.06 OD450
  OD450 at 0.01 nM: 0.07 OD450
  OD450 at 0.10 nM: 0.13 OD450
  OD450 at 1.00 nM: 0.78 OD450
  OD450 at 10 nM: 1.93 OD450
  OD450 at 100 nM: 2.47 OD450
[15]
  Maximum mean fluorescence intensity: 177

Source: US20250042994A1 (HAINAN SIMCERE ZAIMING PHARMACEUTICAL, published 2025)
